# According to article PMC9079162:
# Biological target: human complement regulatory factor H (hfH) (human) (UniProt P08603)
# Assay: SPR
# human complement regulatory factor H (hfH) (human), sequence (P08603 19-1231): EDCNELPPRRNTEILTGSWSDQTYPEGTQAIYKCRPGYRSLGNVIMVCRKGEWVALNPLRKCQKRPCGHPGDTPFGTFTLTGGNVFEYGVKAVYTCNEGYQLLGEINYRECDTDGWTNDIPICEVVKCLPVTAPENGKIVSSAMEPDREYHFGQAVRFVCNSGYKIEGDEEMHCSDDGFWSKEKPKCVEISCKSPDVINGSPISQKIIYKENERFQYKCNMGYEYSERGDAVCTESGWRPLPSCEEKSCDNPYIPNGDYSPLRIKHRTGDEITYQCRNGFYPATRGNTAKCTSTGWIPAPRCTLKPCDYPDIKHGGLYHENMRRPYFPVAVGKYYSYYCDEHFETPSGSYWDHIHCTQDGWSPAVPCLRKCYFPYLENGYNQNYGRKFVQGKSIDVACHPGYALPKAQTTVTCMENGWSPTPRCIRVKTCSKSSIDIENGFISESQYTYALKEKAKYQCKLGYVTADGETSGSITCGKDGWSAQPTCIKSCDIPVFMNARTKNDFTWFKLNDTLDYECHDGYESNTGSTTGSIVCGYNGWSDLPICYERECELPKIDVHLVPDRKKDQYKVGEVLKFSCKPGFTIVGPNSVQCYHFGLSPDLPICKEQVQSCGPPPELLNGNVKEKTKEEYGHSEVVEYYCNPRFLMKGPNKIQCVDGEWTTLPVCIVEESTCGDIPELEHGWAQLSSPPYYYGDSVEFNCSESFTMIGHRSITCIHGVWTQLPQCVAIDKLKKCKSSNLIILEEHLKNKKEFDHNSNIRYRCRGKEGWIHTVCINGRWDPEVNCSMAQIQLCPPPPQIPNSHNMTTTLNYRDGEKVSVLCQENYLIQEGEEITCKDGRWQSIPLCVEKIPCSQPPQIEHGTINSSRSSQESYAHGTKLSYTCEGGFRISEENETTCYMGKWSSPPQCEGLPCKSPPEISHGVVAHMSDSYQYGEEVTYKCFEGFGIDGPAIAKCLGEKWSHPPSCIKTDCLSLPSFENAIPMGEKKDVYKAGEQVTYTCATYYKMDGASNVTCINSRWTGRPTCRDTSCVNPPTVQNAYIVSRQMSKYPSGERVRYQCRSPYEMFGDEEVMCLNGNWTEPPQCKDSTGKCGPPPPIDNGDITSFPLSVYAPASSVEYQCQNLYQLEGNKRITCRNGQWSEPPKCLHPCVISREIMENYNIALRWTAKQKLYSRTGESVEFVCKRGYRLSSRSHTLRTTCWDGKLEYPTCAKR
substance,measurement,value
"factor H binding protein (fHbp) variant1-2,3.x from MenB clinical isolate NL096 (from UniProt E6MV22 20-274) (natural protein)",Kd,30.4 nM
